This note sets out measurements from IntAct's records for PubMed 29892012.

B1: Protein VAC14 homolog (Homo sapiens), Q08AM6 (parent)
chain: MNPEKDFAPLTPNIVRALNDKLYEKRKVAALEIEKLVREFVAQNNTVQIKHVIQTLSQEFALSQHPHSRKGGLIGLAACSIALGKDSGLYLKELIEPVLTCFNDADSRLRYYACEALYNIVKVARGAVLPHFNVLFDGLSKLAADPDPNVKSGSELLDRLLKDIVTESNKFDLVSFIPLLRERIYSNNQYARQFIISWILVLESVPDINLLDYLPEILDGLFQILGDNGKEIRKMCEVVLGEFLKEIKKNPSSVKFAEMANILVIHCQTTDDLIQLTAMCWMREFIQLAGRVMLPYSSGILTAVLPCLAYDDRKKSIKEVANVCNQSLMKLVTPEDDELDELRPGQRQAEPTPDDALPKQEGTASGGPDGSCDSSFSSGISVFTAASTERAPVTLHLDGIVQVLNCHLSDTAIGMMTRIAVLKWLYHLYIKTPRKMFRHTDSLFPILLQTLSDESDEVILKDLEVLAEIASSPAGQTDDPGPLDGPDLQASHSELQVPTPGRAGLLNTSGTKGLECSPSTPTMNSYFYKFMINLLKRFSSERKLLEVRGPFIIRQLCLLLNAENIFHSMADILLREEDLKFASTMVHALNTILLTSTELFQLRNQLKDLKTLESQNLFCCLYRSWCHNPVTTVSLCFLTQNYRHAYDLIQKFGDLEVTVDFLAEVDKLVQLIECPIFTYLRLQLLDVKNNPYLIKALYGLLMLLPQSSAFQLLSHRLQCVPNPELLQTEDSLKAAPKSQKADSPSIDYAELLQHFEKVQNKHLEVRHQRSGRGDHLDRRVVL
partner: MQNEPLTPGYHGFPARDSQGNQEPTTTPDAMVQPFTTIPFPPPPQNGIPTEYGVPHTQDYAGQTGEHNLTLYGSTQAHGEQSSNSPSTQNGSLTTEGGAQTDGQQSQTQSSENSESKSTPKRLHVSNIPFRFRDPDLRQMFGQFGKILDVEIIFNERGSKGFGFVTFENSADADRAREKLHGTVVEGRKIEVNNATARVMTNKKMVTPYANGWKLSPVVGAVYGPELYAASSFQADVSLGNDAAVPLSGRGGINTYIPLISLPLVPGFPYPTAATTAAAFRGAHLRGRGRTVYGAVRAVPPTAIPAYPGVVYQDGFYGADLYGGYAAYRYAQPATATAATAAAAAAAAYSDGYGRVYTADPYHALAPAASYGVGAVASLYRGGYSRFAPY
B2: Casein kinase II subunit alpha (Homo sapiens), P68400 (parent)
chain: MSGPVPSRARVYTDVNTHRPREYWDYESHVVEWGNQDDYQLVRKLGRGKYSEVFEAINITNNEKVVVKILKPVKKKKIKREIKILENLRGGPNIITLADIVKDPVSRTPALVFEHVNNTDFKQLYQTLTDYDIRFYMYEILKALDYCHSMGIMHRDVKPHNVMIDHEHRKLRLIDWGLAEFYHPGQEYNVRVASRYFKGPELLVDYQMYDYSLDMWSLGCMLASMIFRKEPFFHGHDNYDQLVRIAKVLGTEDLYDYIDKYNIELDPRFNDILGRHSRKRWERFVHSENQHLVSPEALDFLDKLLRYDHQSRLTAREAMEHPYFYTVVKDQARMGSSSMPGGSTPVSSANMMSGISSVPTPSPLGPLAGSPVIAAANPLGMPVPAAAGAQQ
partner: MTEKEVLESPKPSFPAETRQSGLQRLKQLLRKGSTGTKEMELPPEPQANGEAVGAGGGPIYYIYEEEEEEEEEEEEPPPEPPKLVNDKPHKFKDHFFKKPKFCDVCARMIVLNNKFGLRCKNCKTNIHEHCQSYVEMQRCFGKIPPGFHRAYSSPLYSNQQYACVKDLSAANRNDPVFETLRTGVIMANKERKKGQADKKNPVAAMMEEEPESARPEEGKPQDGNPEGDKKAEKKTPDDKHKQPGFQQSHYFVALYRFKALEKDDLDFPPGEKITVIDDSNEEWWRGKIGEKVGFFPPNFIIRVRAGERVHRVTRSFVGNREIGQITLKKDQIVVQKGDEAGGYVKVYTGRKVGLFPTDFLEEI
B3: Genetic suppressor element 1 (Homo sapiens), Q14687 (parent)
chain: MKGMSHEPKSPSLGMLSTATRTTATVNPLTPSPLNGALVPSGSPATSSALSAQAAPSSSFAAALRKLAKQAEEPRGSSLSSESSPVSSPATNHSSPASTPKRVPMGPIIVPPGGHSVPSTPPVVTIAPTKTVNGVWRSESRQDAGSRSSSGGRERLIVEPPLPQEKAGGPAIPSHLLSTPYPFGLSPSSVVQDSRFPPLNLQRPVHHVVPPSTVTEDYLRSFRPYHTTDDLRMSSLPPLGLDPATAAAYYHPSYLAPHPFPHPAFRMDDSYCLSALRSPFYPIPTPGSLPPLHPSAMHLHLSGVRYPPELSHSSLAALHSERMSGLSAERLQMDEELRREREREREREREREADREREKEREREREKEREQEKEREREKERERELERQREQRAREKELLAAKALEPSFLPVAELHGLRGHATEERGKPSEQLTPTRAEKLKDAGLQAPKPVQHPLHPVPTPHHTVPSLISNHGIFSLPSSSAATALLIQRTNEEEKWLARQRRLRQEKEDRQSQVSEFRQQVLEQHLDMGRPPVPAEAEHRPESTTRPGPNRHEPGGRDPPQHFGGPPPLISPKPQLHAAPTALWNPVSLMDNTLETRRAESHSLHSHPAAFEPSRQAAVPLVKVERVFCPEKAEEGPRKREPAPLDKYQPPPPPPREGGSLEHQPFLPGPGPFLAELEKSTQTILGQQRASLPQAATFGELSGPLKPGSPYRPPVPRAPDPAYIYDEFLQQRRRLVSKLDLEERRRREAQEKGYYYDLDDSYDESDEEEVRAHLRCVAEQPPLKLDTSSEKLEFLQLFGLTTQQQKEELVAQKRRKRRRMLRERSPSPPTIQSKRQTPSPRLALSTRYSPDEMNNSPNFEEKKKFLTIFNLTHISAEKRKDKERLVEMLRAMKQKALSAAVADSLTNSPRDSPAVSLSEPATQQASLDVEKPVGVAASLSDIPKAAEPGKLEQVRPQELSRVQELAPASGEKARLSEAPGGKKSLSMLHYIRGAAPKDIPVPLSHSTNGKSKPWEPFVAEEFAHQFHESVLQSTQKALQKHKGSVAVLSAEQNHKVDTSVHYNIPELQSSSRAPPPQHNGQQEPPTARKGPPTQELDRDSEEEEEEDDEDGEDEEEVPKRKWQGIEAVFEAYQEHIEEQNLERQVLQTQCRRLEARHYSLSLTAEQLSHSVAELRSQKQKMVSERERLQAELDHLRKCLALPAMHWPRGYLKGYPR
partner: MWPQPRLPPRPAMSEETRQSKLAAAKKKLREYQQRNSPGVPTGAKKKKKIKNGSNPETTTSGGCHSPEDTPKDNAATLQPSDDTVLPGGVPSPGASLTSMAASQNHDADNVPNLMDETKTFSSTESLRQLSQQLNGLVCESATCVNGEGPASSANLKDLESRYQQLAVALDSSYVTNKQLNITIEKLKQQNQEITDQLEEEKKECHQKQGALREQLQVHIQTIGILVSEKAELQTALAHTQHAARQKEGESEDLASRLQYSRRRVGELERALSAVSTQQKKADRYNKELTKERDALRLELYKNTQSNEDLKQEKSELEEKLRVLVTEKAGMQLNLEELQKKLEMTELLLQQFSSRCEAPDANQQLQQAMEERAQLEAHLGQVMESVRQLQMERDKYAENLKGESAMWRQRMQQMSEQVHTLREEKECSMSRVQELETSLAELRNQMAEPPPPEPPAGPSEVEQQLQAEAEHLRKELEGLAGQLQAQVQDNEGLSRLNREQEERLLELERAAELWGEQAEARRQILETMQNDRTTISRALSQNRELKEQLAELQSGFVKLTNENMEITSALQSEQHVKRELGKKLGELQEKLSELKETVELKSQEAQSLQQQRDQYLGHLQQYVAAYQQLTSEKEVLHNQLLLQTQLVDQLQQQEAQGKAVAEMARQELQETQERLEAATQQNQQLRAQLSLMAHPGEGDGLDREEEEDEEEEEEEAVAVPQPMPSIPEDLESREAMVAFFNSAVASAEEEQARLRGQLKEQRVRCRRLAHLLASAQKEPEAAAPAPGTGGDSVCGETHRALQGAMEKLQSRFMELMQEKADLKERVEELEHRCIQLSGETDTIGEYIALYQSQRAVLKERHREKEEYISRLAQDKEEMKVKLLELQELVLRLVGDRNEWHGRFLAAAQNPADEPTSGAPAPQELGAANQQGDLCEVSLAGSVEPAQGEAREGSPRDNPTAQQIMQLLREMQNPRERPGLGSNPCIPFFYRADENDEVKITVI
B4: Kinetochore protein NDC80 homolog (Homo sapiens), O14777 (parent)
chain: MKRSSVSSGGAGRLSMQELRSQDVNKQGLYTPQTKEKPTFGKLSINKPTSERKVSLFGKRTSGHGSRNSQLGIFSSSEKIKDPRPLNDKAFIQQCIRQLCEFLTENGYAHNVSMKSLQAPSVKDFLKIFTFLYGFLCPSYELPDTKFEEEVPRIFKDLGYPFALSKSSMYTVGAPHTWPHIVAALVWLIDCIKIHTAMKESSPLFDDGQPWGEETEDGIMHNKLFLDYTIKCYESFMSGADSFDEMNAELQSKLKDLFNVDAFKLESLEAKNRALNEQIARLEQEREKEPNRLESLRKLKASLQGDVQKYQAYMSNLESHSAILDQKLNGLNEEIARVELECETIKQENTRLQNIIDNQKYSVADIERINHERNELQQTINKLTKDLEAEQQKLWNEELKYARGKEAIETQLAEYHKLARKLKLIPKGAENSKGYDFEIKFNPEAGANCLVKYRAQVYVPLKELLNETEEEINKALNKKMGLEDTLEQLNAMITESKRSVRTLKEEVQKLDDLYQQKIKEAEEEDEKCASELESLEKHKHLLESTVNQGLSEAMNELDAVQREYQLVVQTTTEERRKVGNNLQRLLEMVATHVGSVEKHLEEQIAKVDREYEECMSEDLSENIKEIRDKYEKKATLIKSSEE
partner: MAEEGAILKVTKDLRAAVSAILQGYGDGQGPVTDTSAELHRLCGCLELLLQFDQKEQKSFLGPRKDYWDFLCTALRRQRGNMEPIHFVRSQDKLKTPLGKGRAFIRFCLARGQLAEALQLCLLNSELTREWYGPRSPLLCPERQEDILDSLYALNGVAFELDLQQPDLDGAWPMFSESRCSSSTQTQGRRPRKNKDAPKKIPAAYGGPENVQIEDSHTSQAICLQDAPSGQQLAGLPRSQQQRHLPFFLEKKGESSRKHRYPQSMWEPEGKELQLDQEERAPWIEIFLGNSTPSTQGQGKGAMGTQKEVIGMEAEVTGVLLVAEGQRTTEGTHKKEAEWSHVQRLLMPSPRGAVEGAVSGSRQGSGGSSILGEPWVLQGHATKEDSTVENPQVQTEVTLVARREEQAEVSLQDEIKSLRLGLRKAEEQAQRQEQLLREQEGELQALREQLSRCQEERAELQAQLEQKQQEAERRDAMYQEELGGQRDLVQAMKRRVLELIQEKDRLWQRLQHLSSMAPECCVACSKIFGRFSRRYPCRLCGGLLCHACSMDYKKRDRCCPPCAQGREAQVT
B5: Leucine-zipper-like transcriptional regulator 1 (Homo sapiens), Q8N653 (parent)
chain: MAGPGSTGGQIGAAALAGGARSKVAPSVDFDHSCSDSVEYLTLNFGPFETVHRWRRLPPCDEFVGARRSKHTVVAYKDAIYVFGGDNGKTMLNDLLRFDVKDCSWCRAFTTGTPPAPRYHHSAVVYGSSMFVFGGYTGDIYSNSNLKNKNDLFEYKFATGQWTEWKIEGRLPVARSAHGATVYSDKLWIFAGYDGNARLNDMWTIGLQDRELTCWEEVAQSGEIPPSCCNFPVAVCRDKMFVFSGQSGAKITNNLFQFEFKDKTWTRIPTEHLLRGSPPPPQRRYGHTMVAFDRHLYVFGGAADNTLPNELHCYDVDFQTWEVVQPSSDSEVGGAEVPERACASEEVPTLTYEERVGFKKSRDVFGLDFGTTSAKQPTQPASELPSGRLFHAAAVISDAMYIFGGTVDNNIRSGEMYRFQFSCYPKCTLHEDYGRLWESRQFCDVEFVLGEKEECVQGHVAIVTARSRWLRRKITQARERLAQKLEQEAAPVPREAPGVAAGGARPPLLHVAIREAEARPFEVLMQFLYTDKIKYPRKGHVEDVLLIMDVYKLALSFQLCRLEQLCRQYIEASVDLQNVLVVCESAARLQLSQLKEHCLNFVVKESHFNQVIMMKEFERLSSPLIVEIVRRKQQPPPRTPLDQPVDIGTSLIQDMKAYLEGAGAEFCDITLLLDGHPRPAHKAILAARSSYFEAMFRSFMPEDGQVNISIGEMVPSRQAFESMLRYIYYGEVNMPPEDSLYLFAAPYYYGFYNNRLQAYCKQNLEMNVTVQNVLQILEAADKTQALDMKRHCLHIIVHQFTKVSKLPTLRSLSQQLLLDIIDSLASHISDKQCAELGADI
B6: Genetic suppressor element 1 (Homo sapiens), Q14687 (parent)
chain: B3 chain

Variants of B1 are the subject of one test. The conditions noted are these: with rfox2_human RBFOX2, O43251.
A127S: the “effect of a mutation on the interaction” value is on record as “with no effect”.

The variants in another test derive from B2. The settings on record: with stac3_human STAC3, Q96MF2.
In the case of K198R, the “effect of a mutation on the interaction” value is “with no effect”.

Variants of B3 are the subject of a further test. The settings on record: with goga2_human GOLGA2, Q08379.
For R503Q, the “effect of a mutation on the interaction” value is reported as “with no effect”.

The next test covers variants of B3. The settings on record: with goga2_human GOLGA2, Q08379. This is another data set of the same source.
Consider E368K, for which the “effect of a mutation on the interaction” value is “with no effect”.

In a further test the parent is B4. The settings on record: with rufy4_human RUFY4, Q6ZNE9.
K288E: the “effect of a mutation on the interaction” value is given as “with no effect”.

The variants in another test derive from B5. The conditions noted are these: with gcp4_human TUBGCP4, Q9UGJ1.
Chain of gcp4_human TUBGCP4, Q9UGJ1 (Q9UGJ1 whole entry): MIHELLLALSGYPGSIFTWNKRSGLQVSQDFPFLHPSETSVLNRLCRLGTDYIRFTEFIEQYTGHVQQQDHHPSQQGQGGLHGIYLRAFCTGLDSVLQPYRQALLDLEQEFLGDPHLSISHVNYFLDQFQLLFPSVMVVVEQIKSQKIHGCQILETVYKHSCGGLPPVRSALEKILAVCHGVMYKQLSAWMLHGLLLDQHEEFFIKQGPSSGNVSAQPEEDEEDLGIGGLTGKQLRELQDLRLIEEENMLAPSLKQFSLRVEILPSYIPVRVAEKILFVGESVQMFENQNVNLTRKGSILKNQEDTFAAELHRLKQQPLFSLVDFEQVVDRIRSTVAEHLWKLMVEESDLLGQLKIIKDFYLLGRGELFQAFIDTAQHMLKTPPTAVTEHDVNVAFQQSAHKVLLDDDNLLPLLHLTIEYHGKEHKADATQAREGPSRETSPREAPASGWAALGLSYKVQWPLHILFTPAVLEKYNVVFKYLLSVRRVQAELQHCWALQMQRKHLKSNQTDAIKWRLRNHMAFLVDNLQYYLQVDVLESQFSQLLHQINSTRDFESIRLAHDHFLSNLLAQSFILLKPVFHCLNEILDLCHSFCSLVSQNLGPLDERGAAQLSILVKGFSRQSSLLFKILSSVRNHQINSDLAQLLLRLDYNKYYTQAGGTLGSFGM
As for G663V, the “effect of a mutation on the interaction” value was “disrupting interaction strength”.

Another test covers variants of B5. The conditions noted are these: with gcp4_human TUBGCP4, Q9UGJ1. This is another data set of the same source.
E721K: the “effect of a mutation on the interaction” value is “with no effect”.

In another test the parent is B6. The conditions noted are these: with rbpms_human RBPMS.
In the case of R503Q, the “effect of a mutation on the interaction” value is reported as “with no effect”.

The variants in a further test derive from B6. The settings on record: with rcor3_human RCOR3, Q9P2K3.
For the variant R503Q, the “effect of a mutation on the interaction” value was “with no effect”.

The variants in another test derive from B6. The settings on record: with rbpms_human RBPMS. The source holds these as a separate data set.
E368K: the “effect of a mutation on the interaction” value was “with no effect”.

The variants in the next test derive from B6. The conditions noted are these: with rcor3_human RCOR3, Q9P2K3. The source holds these as a separate data set.
As for E368K, the “effect of a mutation on the interaction” value was “with no effect”.
